Like-named read-outs stand apart in the source and are kept apart here.
Tests used:
human TIM-3 on cells [1] = target: T1, human TIM-3 on cells (human, UniProt Q8TDQ0 22-301); assay: flow cytometry, human CD14+ monocytes donor2
T1 construct: also called CHO-Tim3; rec CHOK1 cells expressing huTIM-3
Text: (§1) CD14+ Monocytes were isolated from anticoagulated peripheral blood of healthy donors by density gradient centrifugation using Ficoll-Paque (GE Healthcare) (see General Protocols in the User Manuals or visit www.miltenyibiotec.com/protocols) and subsequent positive selection via CD14 MicroBeads. First the CD14+ cells are magnetically labeled with CD14 MicroBeads. Then the cell suspension is loaded onto a MACS® Column which is placed in the magnetic field of a MACS Separator. The magnetically labeled CD14+ cells are retained in the column. The unlabeled cells run through, this cell fraction is depleted of CD14+ cells. After removal of the column from the magnetic field, the magnetically retained CD14+ cells can be eluted as the positively selected cell fraction. After centrifugation at 200×g for 10 min at room temperature the monocytes were harvested and used directly in binding assay or resuspended in freezing medium (10% DMSO, 90% FCS) at 1.0E+07 cells/ml and stored in liquid nitrogen.
(§2) 1×10⁵ CD14+ isolated human monocytes (50 μl/well) were put into 98 well-v bottom MTP in fresh culture medium and incubated with Redimune® NF Liquid for 15 min at RT to block unspecific binding. […] After washing and centrifugation MFI signals of stained cells were analyzed by BD Biosciences FACSCanto flow cytometer.

human TIM-3 on cells [2] = target: T1, human TIM-3 on cells; assay: flow cytometry, human CD14+ monocytes donor1
Text: as §1, §2

human TIM-3 on cells [3] = target: T1, human TIM-3 on cells; assay: cell-based or functional assay
Tim3-ECD-His-Biotin = target: T2, Tim3-ECD-His-Biotin (human, UniProt Q8TDQ0 22-202); assay: ELISA on Tim3-ECD-His-Biotin
T2 construct: also called human Tim3 (ELISA); Biochem Human
Experimental: After washing (3×90 μl/well with PBST-buffer) 25 μl aTim3 samples or diluted (1:2 steps) reference antibody aTim3 F38-2E2 (Biolegend) was added and incubated 1 h at RT. After washing (3×90 μl/well with PBST-buffer) 25 μl/well sheep-anti-mouse-POD (GE NA9310V) was added in 1:9000 dilution and incubated at RT for 1 h while shaking at 400 rpm rotation. After washing (4×90 μl/well with PBST-buffer) 25 μl/well TMB substrate (Calbiochem, #CL07) was added and incubated until OD 1.5-2.5. Then the reaction was stopped by addition of 25 μl/well 1N HCL-solution.

human TIM-3 on cells [4] = target: T1, human TIM-3 on cells; assay: flow cytometry, human CD14+ monocytes donor3
Text: as §1, §2

monomeric human Tim3-ECD [5] = target: T3, monomeric human Tim3-ECD (human, UniProt Q8TDQ0 22-202); assay: SPR Biacore, antibody captured by anti-mouse IgG
T3 construct: also called huTim3
Experimental: (§3) Therefore, an anti-mouse IgG was immobilized by amine coupling to the surface of a (Biacore) CM5 sensor chip. The samples were then captured and hu/cy Tim3-ECD was bound to them. The sensor chip surface was regenerated after each analysis cycle. The equilibrium constant KD was finally gained by fitting the data to a 1:1 langmuir interaction model.
(§4) Flow cell temperature was set to 25° C. and sample compartment temperature to 12° C. The system was primed with running buffer. The samples were injected for 30 seconds with a concentration of 200 μg/ml and bound to the spots 1 and 5 of each flow cell, allowing the measurement of eight samples in parallel. Then a complete set of different (monomeric cyno, monomeric human and huFc fused dimeric human Tim3-ECD) concentrations (s. Table X) was injected over each sample for 240 s followed by a dissociation time of 30/1800 s (s. Table 1). Each analysis cycle (sample capture, spot 1 and 5—Tim3 ECD injection) was then regenerated with a 30 seconds long injection of Glycine-HCl pH 1.7. The flow rate was set to 30 μl/min for the whole run. Finally, the double referenced data was fitted to a 1:1 langmuir interaction model with the Biacore B4000 Evaluation Software.

[6] = target: T4, huFc fused dimeric human Tim3-ECD (human, UniProt Q8TDQ0 22-202); assay: SPR Biacore, antibody captured by anti-mouse IgG
T4 construct: also called huTim3Fc; bivalent Tim3
Experimental: as §3, §4

human TIM-3 on cells [7] = target: T1, human TIM-3 on cells; assay: cell ELISA, CHO-K1 expressing human Tim3
Experimental: Then the reaction was stopped by addition of 25 μl/well 1N HCL-solution.

[8] = target: T4, huFc fused dimeric human Tim3-ECD; assay: SPR Biacore, bivalent Tim3
Experimental: as §3, §4

monomeric human Tim3-ECD [9] = target: T3, monomeric human Tim3-ECD; assay: SPR Biacore, monovalent Tim3
Experimental: as §3, §4

[10] = target: T5, cynomolgus TIM-3 on isolated cyno CD14+ monocytes (cynomolgus); assay: flow cytometry, cyno CD14+ monocytes cyno1
T5 construct: whole, on cells
Text: (§5) CD14+ Monocytes were isolated from cynomolgus monkey anticoagulated peripheral blood (Covance) by density gradient centrifugation using Ficoll-Paque (GE Healthcare) (see General Protocols in the User Manuals or visit www.miltenyibiotec.com/protocols) and subsequent positive selection via NHP CD14 MicroBeads. First the CD14+ cells are magnetically labeled with CD14 MicroBeads. Then the cell suspension is loaded onto a MACS® Column which is placed in the magnetic field of a MACS Separator. The magnetically labeled CD14+ cells are retained in the column. The unlabeled cells run through, this cell fraction is depleted of CD14+ cells. After removal of the column from the magnetic field, the magnetically retained CD14+ cells can be eluted as the positively selected cell fraction. After centrifugation at 200×g for 10 min at room temperature the monocytes were harvested and used directly in binding assay or resuspended in freezing medium (10% DMSO, 90% FCS) at 1.0E+07 cells/ml and stored in liquid nitrogen.
(§6) 1×10⁵ CD14+ isolated cyno monocytes (50 μl/well) were put into 98 well-v bottom MTP in fresh culture medium and incubated with Redimune® NF Liquid for 15 min at RT to block unspecific binding. Than 50 μl/well of Alexa488 labeled anti-TIM3 (10 μg/ml in cell culture medium) were added and incubated for 1 h at 4° C. After washing and centrifugation MFI signals of stained cells were analyzed by BD Biosciences FACSCanto flow cytometer.

[11] = target: T5, cynomolgus TIM-3 on isolated cyno CD14+ …; assay: flow cytometry, cyno CD14+ monocytes cyno3
Text: as §5, §6

[12] = target: T5, cynomolgus TIM-3 on isolated cyno CD14+ …; assay: flow cytometry, cyno CD14+ monocytes cyno2
Text: as §5, §6

human TIM-3 on cells [13] = target: T1, human TIM-3 on cells; assay: cell-based or functional assay; remark: listed apart in the source
[14] = target: T6, human FolR3 ECD-AcTev-Fcknob-Avi tag + Fc hole, biotinylated monomeric Fc fusion (human, UniProt P0DOX5 223-449 = IgG part); assay: SPR, IgG single injection
T6 construct: also called huFolR3; FolR3-Fc

[15] = target: T7, human FolR1 ECD-AcTev-Fcknob-Avi tag + Fc hole, biotinylated monomeric Fc fusion (human, UniProt P0DOX5 223-449 = IgG part); assay: SPR, IgG single injection
T7 construct: also called huFolR1; huFolR1-Fc

[16] = target: T8, human FolR2 ECD-AcTev-Fcknob-Avi tag + Fc hole, biotinylated monomeric Fc fusion (human, UniProt P0DOX5 223-449 = IgG part); assay: SPR, IgG single injection
T8 construct: also called huFolR2; FolR2-Fc

[17] = target: T9, cynomolgus FolR1 ECD-AcTev-Fcknob-Avi tag + Fc hole, biotinylated monomeric Fc fusion (cynomolgus, UniProt P0DOX5 223-449 = IgG part); assay: SPR, IgG single injection
T9 construct: also called cyFolR1; cyno FolR1-Fc

[18] = target: T6, human FolR3 ECD-AcTev-Fcknob-Avi tag + …; assay: SPR ProteOn, Fab analyte
Experimental: (§7) Immobilization of antigens (ligand): Recombinant antigens were diluted with PBST (10 mM phosphate, 150 mM sodium chloride pH 7.4, 0.005% Tween 20) to 10 μg/ml, then injected at 30 μl/minute in vertical orientation. Injection of analytes: For ‘one-shot kinetics’ measurements, injection direction was changed to horizontal orientation, two-fold dilution series of purified Fab (varying concentration ranges) were injected simultaneously along separate channels 1-5, with association times of 150 or 200 s, and dissociation times of 200 or 600 s, respectively. Buffer (PBST) was injected along the sixth channel to provide an “in-line” blank for referencing. Association rate constants (kₒₙ) and dissociation rate constants (koff) were calculated using a simple one-to-one Langmuir binding model in ProteOn Manager v3.1 software by simultaneously fitting the association and dissociation sensorgrams. The equilibrium dissociation constant (KD) was calculated as the ratio koff/kₒₙ.

[19] = target: T7, human FolR1 ECD-AcTev-Fcknob-Avi tag + …; assay: SPR ProteOn, Fab analyte
Experimental: as §7

[20] = target: T8, human FolR2 ECD-AcTev-Fcknob-Avi tag + …; assay: SPR ProteOn, Fab analyte
Experimental: as §7

[21] = target: T9, cynomolgus FolR1 ECD-AcTev-Fcknob-Avi …; assay: SPR ProteOn, Fab analyte
Experimental: as §7

[22] = target: T10, murine FolR1 ECD-AcTev-Fcknob-Avitag + Fc hole, biotinylated monomeric Fc fusion (murine, UniProt P0DOX5 223-449 = IgG part); assay: SPR ProteOn, Fab analyte
T10 construct: also called muFolR1; murine FolR1-Fc
Experimental: as §7

human FolR1 on cells [23] = target: T11, human FolR1 on cells (human, UniProt P15328 25-234); assay: flow cytometry on HeLa cells (human FolR1), fluorescently labeled anti-human secondary antibody
T11 construct: also called FolR1 on HeLa, SKOV3, HT-29 tumor cells; HEK cells transfected with human FolR1
T11 sequence (P15328 25-234 limits assumed): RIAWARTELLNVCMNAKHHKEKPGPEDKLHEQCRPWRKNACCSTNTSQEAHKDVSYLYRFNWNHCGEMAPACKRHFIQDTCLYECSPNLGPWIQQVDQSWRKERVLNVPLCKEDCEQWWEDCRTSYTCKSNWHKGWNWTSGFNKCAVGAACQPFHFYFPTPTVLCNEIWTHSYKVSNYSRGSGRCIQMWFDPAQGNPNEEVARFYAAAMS
Experimental: (§8) Binding of newly generated FolR1 binders to FolR1 expressed on HeLa cells were determined by flow cytometry. Bound antibodies were detected with a fluorescently labeled anti-human secondary antibody.
(§9) The identified binders were converted into a human IgG1 format and binding to FolR1 high expressing HeLa cells was addressed.

[24] = target: T12, human FolR2 on transiently transfected HEK cells (human, UniProt P14207 17-230); assay: flow cytometry on HEK cells transiently transfected with human FolR2, anti-human secondary antibody; concentration not given
T12 sequence (P14207 17-230 limits assumed): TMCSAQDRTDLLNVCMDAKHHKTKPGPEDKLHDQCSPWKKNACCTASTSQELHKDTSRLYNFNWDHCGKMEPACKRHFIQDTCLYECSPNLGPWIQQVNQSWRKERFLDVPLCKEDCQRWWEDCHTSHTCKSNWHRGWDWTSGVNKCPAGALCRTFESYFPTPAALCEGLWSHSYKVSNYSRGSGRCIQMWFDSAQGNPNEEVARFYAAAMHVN

[25] = target: T13, cynomolgus FolR1 on transiently transfected HEK cells (cynomolgus, UniProt P15328 25-234 (human entry)); assay: flow cytometry on HEK cells transiently transfected with cyno FolR1, anti-human secondary antibody
T13 construct: also called cyno FolR1; cyFoLR1
T13 sequence (P15328 other isoform, or with tags, fused parts or gaps limits assumed): as the sequence (P15328 25-234 limits assumed) above, with I2T, W4R, R37K, Q117R, A146P, H171Y counted along it
Text: Cross-reactivity of the FolR1 antibodies to cyno FolR1 was addressed on HEK cells transiently transfected with cyFolR1 by flow cytometry. The antibodies were detected with a fluorescently labeled anti-human secondary antibody.
In parallel cross-reactivity of the FolR1 clones to cyno FolR1 was addressed by performing binding studies to HEK cells transiently transfected with cyno FolR1.

[26] = target: T10, murine FolR1 ECD-AcTev-Fcknob-Avitag + …; assay: SPR, IgG single injection
[27] = target: T12, human FolR2 on transiently transfected …; assay: flow cytometry on HEK cells transiently transfected with human FolR2, anti-human secondary antibody; concentration not given; remark: listed apart in the source
human FolR1 on cells [28] = target: T11, human FolR1 on cells; assay: flow cytometry on HeLa cells (human FolR1), fluorescently labeled anti-human secondary antibody; remark: listed apart in the source
Experimental: as §8, §9

human FolR1 on cells [29] = target: T11, human FolR1 on cells; assay: as above; remark: listed apart in the source
Experimental: as §8, §9

B1: Tim3_0026 (antibody, V domains shown)
VH: QIQLVQSGPELKKPGETVKISCKASGYTFTDYSMHWVKQAPGRGLKWMGYINTETYEPTFGADFKGRFAFSLDTSATTAYLQINSLKTEDTATFFCGGGGYPAYWGQGTVVIVSA
VL: DVLMTQTPLSLPVSLGDQASISCRSSRTILHSSGNTYLEWYLQKPGQSPKLLIYKVSNRFSGVPDRFSGSGSGTDFTLNISRVEAEDLGVYYCFQDSHVPFTFGTGTKLEIK
- specific binding MFI (human TIM-3 on cells [1]): 1020 MFI
- specific binding MFI (human TIM-3 on cells [2]): 1660 MFI
- IC50 cytotoxicity (anti-mFc Fab-PE24 sandwich), RPMI-8226 (human TIM-3 on cells [3]): > 64 nM
- EC50 (Tim3-ECD-His-Biotin): 0.047 µg/mL
- specific binding MFI (human TIM-3 on cells [4]): 900 MFI
- Kd (monomeric human Tim3-ECD [5]): 6.23 nM
- Kd [6]: 1.52 nM
- EC50 (human TIM-3 on cells [7]): 0.069 µg/mL
- Kd [8]: 1.5 nM
- Kd (monomeric human Tim3-ECD [9]): 6.2 nM
- MFI [10]: 137 MFI
- MFI [11]: 197 MFI
- MFI [12]: 184 MFI
- IFN-gamma release in MLR at 1 µg/ml, % of IL-2 control (human TIM-3 on cells [13]): 18%
- IFN-gamma release in MLR at 10 µg/ml, % of IL-2 control (human TIM-3 on cells [13]): 16%
- IFN-gamma release in MLR at 40 µg/ml, % of IL-2 control (human TIM-3 on cells [13]): 25%

B2: Tim3_0030 (antibody, V domains shown)
VH: QIQLVQSGPELKKPGETVKISCKASGYPFSEYSIHWVKQAPGKGLKWMVYVNTETGQPIVGDDFRGRFVLSLETSASTAYLQINNLKNEDTATYFCGGGGYPAYWGQGTLVTVSA
VL: DVLMTQTPLSLPVSLGDQASISCRSSRSIVHSSGNTYLEWYLQKPGQSPKLLIYKVSNRFSGVPDRFSGSGSGTDFTLNISRVEAEDLGVYYCFQDSHVPFTFGTGTKLEIK
- specific binding MFI (human TIM-3 on cells [1]): 419 MFI
- specific binding MFI (human TIM-3 on cells [2]): 1410 MFI
- IC50 cytotoxicity (anti-mFc Fab-PE24 sandwich), RPMI-8226 (human TIM-3 on cells [3]): > 64 nM
- specific binding MFI (human TIM-3 on cells [4]): 466 MFI
- Kd (monomeric human Tim3-ECD [5]): 3.11 nM
- Kd [6]: 1.28 nM
- MFI [10]: 119 MFI
- MFI [11]: 144 MFI
- MFI [12]: 163 MFI
- IFN-gamma release in MLR at 1 µg/ml, % of IL-2 control (human TIM-3 on cells [13]): 3%
- IFN-gamma release in MLR at 10 µg/ml, % of IL-2 control (human TIM-3 on cells [13]): 4%
- IFN-gamma release in MLR at 40 µg/ml, % of IL-2 control (human TIM-3 on cells [13]): 14%

B3: 14E4 IgG (antibody, V domains shown)
VH: not shown
VL: EIVLTQSPGTLSLSPGERATLSCRASQSVSSSYLAWYQQKPGQAPRLLIYGASSRATGIPDRFSGSGSGTDSTLTISRLEPEDFAVYYCQQPTSSPITFGQGTKVEIK
notes: human IgG1
- binding result [14]: no binding (tested: 500 nM)
- binding result [15]: no binding (tested: 500 nM)
- binding result [16]: no binding (tested: 500 nM)
- binding result [17]: no binding (tested: 500 nM)

B4: 14E4 Fab (Fab, V domains shown)
VH: not shown
VL: EIVLTQSPGTLSLSPGERATLSCRASQSVSSSYLAWYQQKPGQAPRLLIYGASSRATGIPDRFSGSGSGTDSTLTISRLEPEDFAVYYCQQPTSSPITFGQGTKVEIK
- binding result [18]: no binding
- binding result [19]: no binding
- binding result [20]: no binding
- binding result [21]: no binding

B5: 36F2 Fab (Fab, V domains shown)
VH: QVQLVQSGAEVKKPGASVKVSCKASGYTFTSYYMHWVRQAPGQGLEWMGIINPSGGSTSYAQKFQGRVTMTHDTSTSTVYMELSSLRSEDTAVYYCARSFFTGFHLDYWGQGTLVTVSS
VL: EIVLTQSPGTLSLSPGERATLSCRASQSVSSSYLAWYQQKPGQAPRLLIYGASSRATGIPDRFSGSGSGTDFTLTISRLEPEDFAVYYCQQYTNEHYYTFGQGTKVEIK
- binding result [18]: no binding
- Kd [19]: 1810 nM
- binding result [20]: no binding
- Kd [21]: 1640 nM
- Kd [22]: 737 nM

B6: 9D11 IgG (antibody, V domains shown)
VH: QVQLVQSGAEVKKPGASVKVSCKASGYTFTSYYMHWVRQAPGQGLEWMGIINPSGGPTSYAQKFQGRVTMTRDTSTSTVYMELSSLRSEDTAVYYCARGDFAWLDYWGQGTLVTVSS
VL: not shown
notes: human IgG1
- binding result (human FolR1 on cells [23]): binds
- binding result [24]: no binding
- binding result [25]: binds
- binding result [14]: no binding (tested: 500 nM)
- binding result [16]: no binding (tested: 500 nM)
- binding result [26]: no binding (tested: 500 nM)

B7: 9D11 Fab (Fab, V domains shown)
VH: QVQLVQSGAEVKKPGASVKVSCKASGYTFTSYYMHWVRQAPGQGLEWMGIINPSGGPTSYAQKFQGRVTMTRDTSTSTVYMELSSLRSEDTAVYYCARGDFAWLDYWGQGTLVTVSS
VL: not shown
- binding result [18]: no binding
- Kd [19]: 8.64 nM
- binding result [20]: no binding
- Kd [21]: 5.29 nM
- binding result [22]: no binding

B8: 19E5 IgG (antibody, V domains shown)
VH: QVQLVQSGAEVKKPGASVKVSCKASGYTFTSYYMHWVRQAPGQGLEWMGIINPSGGSTSYAQKFQGRVTMTRDTSTSTVYMELSSLRSEDTAVYYCARGEWRRYTSFDYWGQGTLVTVSS
VL: QAVVTQEPSLTVSPGGTVTLTCGSSTGAVTTSNYANWVQEKPGQAFRGLIGGTNKRAPGTPARFSGSLLGGKAALTLSGAQPEDEAEYYCALWYSNLWVFGGGTKLTVL
notes: human IgG1
- binding result [27]: binds
- EC50 (read off the curve) (human FolR1 on cells [28]): ~2 µg/mL

B9: 20G6 IgG (antibody, V domains shown)
VH: QVQLVQSGAEVKKPGASVKVSCKASGYTFTSYYMHWVRQAPGQGLEWMGIINPSGGSTSYAQKFQGRVTMTRDTSTSTVYMELSSLRSEDTAVYYCARGEWIRYYHFDYWGQGTLVTVSS
VL: QAVVTQEPSLTVSPGGTVTLTCGSSTGAVTTSNYANWVQEKPGQAFRGLIGGTNKRAPGTPARFSGSLLGGKAALTLSGAQPEDEAEYYCALWYSNLWVFGGGTKLTVL
notes: human IgG1
- binding result (human FolR1 on cells [29]): binds
- binding result [14]: no binding (tested: 500 nM)
- binding result [15]: no binding (tested: 500 nM)
- binding result [16]: no binding (tested: 500 nM)
- binding result [17]: no binding (tested: 500 nM)

Source: US20210087291A1 (Hoffmann-La Roche, published 2021)
